Laboratory results as given in patent US9738911B2, “Methods of producing 7-carbon chemicals via pyruvate and succinate semialdehyde aldol condensation” (INVISTA North America S.a r.l., priority 2012, dated 2017).

How the values were obtained:
Assay type in all cases: biochemical
[1] = Thioesterase enzyme activity assay, pimeloyl-CoA to pimelate; conditions: 667 μM pimeloyl-CoA, 0.8 μM enzyme, 37° C., 20 min, pH 7.4; compared to empty vector control (FIG. 8)
Protocol: A sequence encoding an N-terminal His tag was added to the tesB gene from Escherichia coli that encodes a thioesterase (SEQ ID NO 1, see FIG. 7A), such that an N-terminal HIS tagged thioesterase could be produced. The modified tesB gene was cloned into a pET15b expression vector under control of the T7 promoter. The expression vector was transformed into a BL21[DE3] E. coli host. The resulting recombinant E. coli strain was cultivated at 37° C. in a 500 mL shake flask culture containing 50 mL Luria Broth (LB) media and antibiotic selection pressure, with shaking at 230 rpm. The culture was induced overnight at 17° C. using 0.5 mM IPTO.
The pellet from the induced shake flask culture was harvested via centrifugation. The pellet was resuspended and lysed in Y-Per™ solution (ThermoScientific, Rockford, Ill.). The cell debris was separated from the supernatant via centrifugation. […]
The enzyme activity assay was performed in triplicate in a buffer composed of 50 mM phosphate buffer (pH=7.4), 0.1 mM Ellman's reagent, and 667 μM of pimeloyl-CoA (as substrate). […] The release of Coenzyme A was monitored by absorbance at 412 nm. The absorbance associated with the substrate only control, which contained boiled enzyme, was subtracted from the active enzyme assay absorbance and compared to the empty vector control.

[2] = Carboxylate reductase activity assay, pimelate to pimelate semialdehyde; conditions: 2 mM pimelate, 1 mM ATP, 1 mM NADPH, enhanced by sfp gene product, room temperature, 20 min; against empty vector control (FIG. 10)
Protocol: A sequence encoding a HIS-tag was added to the genes from Segniliparus rugosus and Segniliparus rotundus that encode the carboxylate reductases of SEQ ID NOs: 4 and 7, respectively (see FIGS. 7C and 7F), such that N-terminal HIS tagged carboxylate reductases could be produced. Each of the modified genes was cloned into a pET Duet expression vector along with a sfp gene encoding a HIS-tagged phosphopantetheine transferase from Bacillus subtilis, both under the T7 promoter. Each expression vector was transformed into a BL21[DE3] E. coli host and the resulting recombinant E. coli strains were cultivated at 37° C. in a 250 mL shake flask culture containing 50 mL LB media and antibiotic selection pressure, with shaking at 230 rpm. Each culture was induced overnight at 37° C. using an auto-induction media.
The pellet from each induced shake flask culture was harvested via centrifugation. Each pellet was resuspended and lysed via sonication, and the cell debris was separated from the supernatant via centrifugation. […]
Enzyme activity assays (i.e., from pimelate to pimelate semialdehyde) were performed in triplicate in a buffer composed of a final concentration of 50 mM HEPES buffer (pH=7.5), 2 mM pimelate, 10 mM MgCl, 1 mM ATP and 1 mM NADPH. […] The consumption of NADPH was monitored by absorbance at 340 nm.

[3] = Carboxylate reductase activity assay, N7-acetyl-7-aminoheptanoate to N7-acetyl-7-aminoheptanal; conditions: 2 mM N7-acetyl-7-aminoheptanoate, 1 mM ATP, 1 mM NADPH, enhanced by sfp gene product, room temperature, 20 min; against empty vector control (FIG. 12)
Protocol: The activity of each of the N-terminal His-tagged carboxylate reductases of SEQ ID NOs: 3, 6, and 7 (see Examples 4, and FIGS. 7B, 7E, and 7F) for converting N7-acetyl-7-aminoheptanoate to N7-acetyl-7-aminoheptanal was assayed in triplicate in a buffer composed of a final concentration of 50 mM HEPES buffer (pH=7.5), 2 mM N7-acetyl-7-aminoheptanoate, 10 mM MgCl2, 1 mM ATP, and 1 mM NADPH. The assays were initiated by adding purified carboxylate reductase and phosphopantetheine transferase or the empty vector control to the assay buffer containing the N7-acetyl-7-aminoheptanoate then incubated at room temperature for 20 min. The consumption of NADPH was monitored by absorbance at 340 nm.

B1: gene product of tesB: Escherichia coli thioesterase encoded by tesB (GenBank Accession No. AAA24665.1) (protein, listed as Escherichia coli)
chain: MSQALKNLLTLLNLEKIEEGLFRGQSEDLGLRQVFGGQVVGQALYAAKETVPEERLVHSFHSYFLRPGDSKKPIIYDVETLRDGNSFSARRVAAIQNGKPIFYMTASFQAPEAGFEHQKTMPSAPAPDGLPSETQIAQSLAHLLPPVLKDKFICDRPLEVRPVEFHNPLKGHVAEPHRQVWIRANGSVPDDLRVHQYLLGYASDLNFLPVALQPHGIGFLEPGIQIATIDHSMWFHRPFNLNEWLLYSVESTSASSARGFVRGEFYTQDGVLVASTVQEGVMRNHN
substrate acceptance, release of Coenzyme A monitored by absorbance at 412 nm [1]: accepted pimeloyl-CoA as substrate

B2: SEQ ID NO 4: Segniliparus rugosus carboxylate reductase (Genbank Accession No. EFV 11917.1) (protein, listed as Segniliparus rugosus)
chain: MGDGEERAKRFFQRIGELSATDPQFAAAAPDPAVVEAVSDPSLSFTRYLDTLMRGYAERPALAHRVGAGYETISYGELWARVGAIAAAWQADGLAPGDFVATVGFTSPDYVAVDLAAARSGLVSVPLQAGASLAQLVGILEETEPKVLAASASSLEGAVACALAAPSVQRLVVFDLRGPDASESAADERRGALADAEEQLARAGRAVVVETLADLAARGEALPEAPLFEPAEGEDPLALLIYTSGSTGAPKGAMYSQRLVSQLWGRTPVVPGMPNISLHYMPLSHSYGRAVLAGALSAGGTAHFTANSDLSTLFEDIALARPTFLALVPRVCEMLFQESQRGQDVAELRERVLGGRLLVAVCGSAPLSPEMRAFMEEVLGFPLLDGYGSTEALGVMRNGIIQRPPVIDYKLVDVPELGYRTTDKPYPRGELCIRSTSLISGYYKRPEITAEVFDAQGYYKTGDVMAEIAPDHLVYVDRSKNVLKLSQGEFVAVAKLEAAYGTSPYVKQIFVYGNSERSFLLAVVVPNAEVLGARDQEEAKPLIAASLQKIAKEAGLQSYEVPRDFLIETEPFTTQNGLLSEVGKLLRPKLKARYGEALEARYDEIAHGQADELRALRDGAGQRPVVETVVRAAVAISGSEGAEVGPEANFADLGGDSLSALSLANLLHDVFEVEVPVRIIIGPTASLAGIAKHIEAERAGASAPTAASVHGAGATRIRASELTLEKFLPEDLLAAAKGLPAADQVRTVLLTGANGWLGRFLALEQLERLARSGQDGGKLICLVRGKDAAAARRRIEETLGTDPALAARFAELAEGRLEVVPGDVGEPKFGLDDAAWDRLAEEVDVIVHPAALVNHVLPYHQLFGPNVVGTAEIIRLAITAKRKPVTYLSTVAVAAGVEPSSFEEDGDIRAVVPERPLGDGYANGYGNSKWAGEVLLREAHELVGLPVAVFRSDMILAHTRYTGQLNVPDQFTRLVLSLLATGIAPKSFYQQGAAGERQRAHYDGIPVDFTAEAITTLGAEPSWFDGGAGFRSFDVFNPHHDGVGLDEFVDWLIEAGHPISRIDDHKEWFARFETAVRGLPEAQRQHSLLPLLRAYSFPHPPVDGSVYPTGKFQGAVKAAQVGSDHDVPHLGKALIVKYADDLKALGLL
substrate acceptance, consumption of NADPH by absorbance at 340 nm [2]: accepted pimelate as substrate

B3: SEQ ID NO 6: Mycobacterium massiliense carboxylate reductase (Genbank Accession No. EIV 11143.1) (protein)
chain: MTNETNPQQEQLSRRIESLRESDPQFRAAQPDPAVAEQVLRPGLHLSEAIAALMTGYAERPALGERARELVIDQDGRTTLRLLPRFDTTTYGELWSRTTSVAAAWHHDATHPVKAGDLVATLGFTSIDYTVLDLAIMILGGVAVPLQTSAPASQWTTILAEAEPNTLAVSIELIGAAMESVRATPSIKQVVVFDYTPEVDDQREAFEAASTQLAGTGIALETLDAVIARGAALPAAPLYAPSAGDDPLALLIYTSGSTGAPKGAMHSENIVRRWWIREDVMAGTENLPMIGLNFMPMSHIMGRGTLTSTLSTGGTGYFAASSDMSTLFEDMELIRPTALALVPRVCDMVFQRFQTEVDRRLASGDTASAEAVAAEVKADIRDNLFGGRVSAVMVGSAPLSEELGEFIESCFELNLTDGYGSTEAGMVFRDGIVQRPPVIDYKLVDVPELGYFSTDKPHPRGELLLKTDGMFLGYYKRPEVTASVFDADGFYMTGDIVAELAHDNIEIIDRRNNVLKLSQGEFVAVATLEAEYANSPVVHQIYVYGSSERSYLLAVVVPTPEAVAAAKGDAAALKTTIADSLQDIAKEIQLQSYEVPRDFIIEPQPFTQGNGLLTGIAKLARPNLKAHYGPRLEQMYAEIAEQQAAELRALHGVDPDKPALETVLKAAQALLGVSSAELAADAHFTDLGGDSLSALSFSDLLRDIFAVEVPVGVIVSAANDLGGVAKFVDEQRHSGGTRPTAETVHGAGHTEIRAADLTLDKFIDEATLHAAPSLPKAAGIPHTVLLTGSNGYLGHYLALEWLERLDKTDGKLIVIVRGKNAEAAYGRLEEAFDTGDTELLAHFRSLADKHLEVLAGDIGDPNLGLDADTWQRLADTVDVIVHPAALVNHVLPYNQLFGPNVVGTAEIIKLAITTKIKPVTYLSTVAVAAYVDPTTFDEESDIRLISAVRPIDDGYANGYGNAKWAGEVLLREAHDLCGLPVAVFRSDMILAHSRYTGQLNVPDQFTRLILSLIATGIAPGSFYQAQTTGERPLAHYDGLPGDFTAEAITTLGTQVPEGSEGFVTYDCVNPHADGISLDNFVDWLIEAGYPIARIDNYTEWFTRFDTAIRGLSEKQKQHSLLPLLHAFEQPSAAENHGVVPAKRFQHAVQAAGIGPVGQDGTTDIPHLSRRLIVKYAKDLEQLGLL
modifications: Mycobacterium massiliense
substrate acceptance, consumption of NADPH by absorbance at 340 nm [3]: accepted N7-acetyl-7-aminoheptanoate as substrate
